Source: FireProtDB (doi:10.1021/bi034721x)
Where “and” joins values, the source holds several entries; their conditions need not be identical. Equal values may be shown once.

B1: Parvalbumin alpha, P02625 (parent)
chain: MSMTDLLSAEDIKKAIGAFTAADSFDHKKFFQMVGLKKKSADDVKKVFHILDKDKSGFIEEDELGSILKGFSSDARDLSAKETKTLMAAGDKDGDGKIGVEEFSTLVAES

Variants of: B1
Conditions: Rattus norvegicus, pH 7.4, Thermal, DSC, sodium phosphate 10 mM, NaCl 0.20 M, structure 1RTP, whole UniProt chain shown

Row | Variant | ddG of mutation (higher = less stable) (45.8 °C) [kcal/mol] | heat capacity change of unfolding (45.8 °C) [kcal/mol/K] | Tm [°C] | change of melting temperature, mutant - wild type (higher = more stable) [°C] | unfolding enthalpy (calorimetric) | ddG of mutation (higher = less stable) (44.2 °C) [kcal/mol] | heat capacity change of unfolding (44.2 °C) [kcal/mol/K]
1 | A22P K81S | -0.45 | 1.4 | 47.8 | 2 | 75 kcal/mol | – | –
2 | A22P H27P | 0.5 | 1.4 | 43.6 | -2.2 | 62 kcal/mol | – | –
3 | K81S | 0.29 | 1.4 | 44.5 | -1.3 | 71 kcal/mol | – | –
4 | A22P | 1.92 | 1.4 | – | – | 52 kcal/mol and 63 kcal/mol | -0.95 | 1.4
5 | H27P | -1.25 | 1.4 | 51.4 | 5.6 | 80 kcal/mol | – | –
